Paper PMC9811555 (Current protocols, 2022)

T1: H2B-mCherry-VHH05 (VHH05 tag, identical to a stretch of …, UniProt Q9Y385)
T1 chain: QADQEAKELARQIS

T2: VHH05-REPTOR-127D01 (VHH05 and 127D01 tags (human UBE2J1 and …, UniProt Q9Y385;P25025))
T2 chain 1: QADQEAKELARQIS
T2 chain 2: SFEDFWKGED

T3: H2B-mCherry-127D01 (127D01 tag, identical to a stretch of …, UniProt P25025)
T3 chain: SFEDFWKGED


How the values were obtained:
H2B-mCherry-VHH05 = biological target: T1, H2B-mCherry-VHH05; experiment: far-Western, overlay or dot blot
VHH05-REPTOR-127D01 = biological target: T2, VHH05-REPTOR-127D01; experiment: immunostaining of cells or tissue
H2B-mCherry-127D01 = biological target: T3, H2B-mCherry-127D01; experiment: far-Western, overlay or dot blot

Binder | binding result (H2B-mCherry-VHH05) | binding result (VHH05-REPTOR-127D01) | binding result (H2B-mCherry-127D01)
NbVHH05-HA-His (VHH) VHH: QVQLQESGGGLVQPGGSLRLSCAASGFVFENSAMAWYRQAPGKERELIAVIGTTFIKLAESVKGRFTISRDNAKSTVYLQMNNLKPEDTAVYYCSKSGAYWGQGTQVTVSS | binds | binds | 
Nb127D01-HA-His (VHH) VHH: EVQLVESGGGLVQAGESLRLSCAASGSTFDFKVMGWYRQPPGKQREGVAAIRLSGNMHYAESVKGRFAISKANAKNTVYLQMNSLRPEDTAVYYCKVNIRGQDYWGQGTQVTVSS |  |  | binds
Nb127D01-ALFA-His (VHH) VHH: EVQLVESGGGLVQAGESLRLSCAASGSTFDFKVMGWYRQPPGKQREGVAAIRLSGNMHYAESVKGRFAISKANAKNTVYLQMNSLRPEDTAVYYCKVNIRGQDYWGQGTQVTVSS |  | binds | 
